Laboratory results published in patent publication US20140120091A1 (University of Washington, published 2014).
Positions count from the first letter of the chain named. Numbers in names are those of the source.

T1: human CD40 ligand (CD40L, CD154) expressed on human Jurkat cells (human, UniProt P29965 1-261)
T1 construct: whole, on cells; also called CD40L on Jurkat cells; CD154 (CD40L) expressed on the surface of Jurkat cells
T1 sequence (looked up): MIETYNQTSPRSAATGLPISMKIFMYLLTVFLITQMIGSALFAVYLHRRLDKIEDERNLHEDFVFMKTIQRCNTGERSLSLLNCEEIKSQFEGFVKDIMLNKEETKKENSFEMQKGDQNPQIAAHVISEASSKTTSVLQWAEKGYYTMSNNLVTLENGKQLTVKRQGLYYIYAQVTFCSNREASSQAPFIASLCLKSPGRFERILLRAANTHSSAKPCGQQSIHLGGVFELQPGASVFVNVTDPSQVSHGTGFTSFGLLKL

T2: recombinant human CD40L (Peprotech, Catalog #310-02) (human, UniProt P29965 113-261)
T2 construct: Bought reagent; also called rCD40L; immobilized CD40L
T2 sequence (looked up): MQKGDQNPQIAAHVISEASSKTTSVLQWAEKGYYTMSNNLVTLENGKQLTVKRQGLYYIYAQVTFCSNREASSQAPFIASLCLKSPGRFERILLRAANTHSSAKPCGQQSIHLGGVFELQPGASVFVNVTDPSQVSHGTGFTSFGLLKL

B1: hCD40-4s EC-mthIgG (Fc fusion)
chain: EPPTACREKQYLINSQCCSLCQPGQKLVSDCTEFTETECLPCGESEFLDTWNRETHCHQHKYCDPNLGLRVQQKGTSETDTICTCEEGWHCTSEACESCVLHRSCSPGFGVKQIATGVSDTICEPCPVGFFSNVSSAFEKCHPWTSCETKDLVVQQAGTNKTDVVCGPDLSGGGGSGGGGSGGGGSGGGGSTGLEPKSSDKTHTSPPSPAPELLGGSSVFLFPPKPKDTLMISRTPEVTCVVVDVSHEDPEVKFNWYVDGVEVHNAKTKPREEQYNSTYRVVSVLTVLHQDWLNGKEYKCKVSNKALPASIEKTISKAKGQPREPQVYTLPPSRDELTKNQVSLTCLVKGFYPSDIAVEWESNGQPENNYKTTPPVLDSDGSFFLYSKLTVDKSRWQQGNVFSCSVMHEALHNHYTQKSLSLSPGK
notes: also called human (h)CD40-SSSH-mthIgG1; hCD40mthIgG
B2: CD40 EC-Ig fusion protein, mutant E64S K81H L121P (Fc fusion)
chain: EPPTACREKQYLINSQCCSLCQPGQKLVSDCTEFTETECLPCGSSEFLDTWNRETHCHQHHYCDPNLGLRVQQKGTSETDTICTCEEGWHCTSEACESCVPHRSCSPGFGVKQIATGVSDTICEPCPVGFFSNVSSAFEKCHPWTSCETKDLVVQQAGTNKTDVVCGP
notes: COS7 culture supernatant; not shown: human IgG Fc tail
B3: CD40 EC-Ig fusion protein, mutant E64Y K81T P85Y (Fc fusion)
chain: B2 chain with S44Y, H61T, P65Y, P101L
notes: COS7 culture supernatant; also called triple mutant E64Y K81T P85Y; not shown: human IgG Fc tail

Tests used:
[1] = biological target: T1, human CD40 ligand (CD40L, CD154) …; experiment: flow cytometry, serial dilutions of purified fusion protein on Jurkat cells, AF647 goat anti-human IgG detection
[2] = biological target: T3, recombinant human PCSK9-his6 (AcroBiosystems, Catalog # PC9-H5223) (human, UniProt Q8NBP7 31-692); experiment: PCSK9 antigen binding ELISA, fusion protein immobilized, PCSK9-his6 in solution, HRP anti-his6 detection
T3 construct: Bought reagent; also called PCSK9-his6 antigen; PCSK9-his 6 antigen; not shown: his6 tag

[3] = biological target: T2, recombinant human CD40L (Peprotech, …); experiment: CD40L antigen binding ELISA normalised to IgG sandwich ELISA, COS supernatants
Experimental: Coated plates were washed twice in wash buffer: (PBS/0.05% Tween-20/0.01% Kathon), and blocked overnight at 4° C. in 200 ul/well PBS/2.5% BSA. Blocked plates were washed three times in wash buffer, and serial dilutions of each culture supernatant in (D-PBS, 0.2% BSA) added to successive wells in each plate: (20×, 40×, 80×, and 160× of each supernatant). Supernatant dilutions were incubated overnight at 4° C. Plates were washed three times in wash buffer, then incubated with HRP (horseradish peroxidase) conjugated goat anti-human IgG (Fc specific) (Catalog #109-036-008, Jackson Immunoresearch, West Grove, Pa.) at a 1:7,500 dilution in PBS for 1-2 hours at room temperature. Plates were washed 4-5 times in wash buffer, then 80 ul/well TMB Sureblue peroxidase substrate was added (Catalog #52-00-02, KPL Laboratories, Gaithersburg, Md.). Color was allowed to develop for 5-15 minutes, and reactions stopped by addition of 80 ul/well 1 N HCL. Plates were read using a Biotek SYNERGY® 2 (Biotek Instruments, Winooski, Vt.) plate reader at […], and data analyzed with Gen5 v2 software.

T3 sequence (Q8NBP7 31-692 limits assumed): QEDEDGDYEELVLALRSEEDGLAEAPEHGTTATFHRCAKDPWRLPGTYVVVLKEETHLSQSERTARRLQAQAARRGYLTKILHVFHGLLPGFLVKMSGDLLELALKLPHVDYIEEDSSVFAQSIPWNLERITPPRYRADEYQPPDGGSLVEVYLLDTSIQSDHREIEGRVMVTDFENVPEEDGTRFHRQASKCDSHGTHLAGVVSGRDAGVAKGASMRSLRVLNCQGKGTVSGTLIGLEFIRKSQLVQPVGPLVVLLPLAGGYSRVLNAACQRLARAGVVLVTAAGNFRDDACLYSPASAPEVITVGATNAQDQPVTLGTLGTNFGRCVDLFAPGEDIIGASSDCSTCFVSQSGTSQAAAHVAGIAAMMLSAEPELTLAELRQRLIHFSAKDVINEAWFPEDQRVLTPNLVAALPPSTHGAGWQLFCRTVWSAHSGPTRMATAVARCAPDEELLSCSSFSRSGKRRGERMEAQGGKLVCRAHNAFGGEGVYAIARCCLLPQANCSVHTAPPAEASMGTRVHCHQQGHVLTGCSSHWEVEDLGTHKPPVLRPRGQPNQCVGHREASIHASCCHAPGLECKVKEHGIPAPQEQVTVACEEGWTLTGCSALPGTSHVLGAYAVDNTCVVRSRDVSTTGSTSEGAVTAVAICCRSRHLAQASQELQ

| Binder | binding result [1] | binding result [2] | binding result [3] |
| --- | --- | --- | --- |
| B1 | binds | no binding |  |
| B2 |  |  | binds |
| B3 |  |  | binds |
